Assay results reported in patent US20190016810A1, “METHODS FOR TREATING OR PREVENTING GRAFT-VERSUS-HOST DISEASE INVOLVING THE ADMINISTRATION OF ANTI-CCR5 RECEPTOR AGENTS” (CytoDyn Inc., priority 2017, published 2019).
Entries after “also recorded” stand apart in the source; their conditions may differ.

What was measured:
[1] = biological target: T1, CCR5 (Homo sapiens, UniProt P51681); details: activated human T cells, cited from earlier work
[2] = in vivo; cited from earlier work
[3] = system: engrafted human cells (CD45+, CD3+); experiment: Flow cytometry analysis of engrafted human cells in peripheral blood, spleen and bone marrow of NSG mice; format: in vivo; details: for CD45+ cells in peripheral blood at the time of euthanasia: control 64%
Description: Peripheral blood (PB), bone marrow (BM), and spleen (SPL) samples were analyzed by flow cytometry. Splenocytes were passed through a […] strainer. Erythrocytes were lysed with ammonium chloride. Cells were washed twice with PBS and stained for 15 min at 4 deg C. in PBS/0.5 mM EDTA/0.5% BSA with the following antibodies: anti-human-CD3-FITC (clone UCHT1, IM1281U), anti-human-CD45-PC7 (clone J.33, 1M3548U), Beckman/Coulter. Samples were analyzed on a Cytomics FC500 Flow Analyzer (Beckman/Coulter).

[4] = system: HIV-1; details: at concentrations that do not affect CCR5 chemokine receptor activity; in vitro and hu-PBL-SCID mouse model; cited from earlier work
[5] = system: xeno-GVHD in NSG mice; experiment: xeno-GVHD in NSG mice engrafted with human bone marrow cells: physical signs, weight, survival
Description: Animal experiments were conducted in accordance with the ethical standards and according to national and international guidelines and were approved by the Cleveland Clinic Institutional Animal Care and Use Committee. Male NSG mice, NOD.Cg-Prkdc^scidIl2ry^tm1wjl/SzJ (NOD-scid IL2ry^null, NSG) mice were obtained from the Jackson Laboratory (Bar Harbor, Me., USA), and athymic nude (nu/nu) (Taconic, Hudson, N.Y.) 6-8 wk old were used. Mice were housed in a barrier facility in cages with microisolator lids, autoclaved bedding, and HEPA-filtered air, and maintained under 12:12 light/dark cycles, controlled temperature and humidity. […] Conditioning regimen: Mice received 2.25 Gy total body irradiation via a 137Cs source (Shepherd, Los Angeles Calif.).
Following gamma irradiation (24 h later) mice were engrafted with human BM cells. De-identified human donor cells were obtained by back-flushing filter packs utilized by the Cleveland Clinic BMT program. Fresh (non-frozen) leukocytes were purified by Ficoll-Hypaque gradient centrifugation, washed in phosphate buffered saline (PBS), assessed for viability (ViCell, Beckman Coulter, Brea, Calif.). Human BM leukocytes were injected into the lateral tail vein (10^7 cells/mouse). Mice were monitored for clinical symptoms of GVHD (body posture, activity, fur and skin condition, weight loss) two times/wk. Peripheral blood was monitored weekly for engraftment utilizing saphenous vein venipuncture (50 mL) collected in K-EDTA tubes.
Mice were randomized into control and treatment groups by body weight. PRO 140 was administered on different doses (0.2-2.0 mg/kg) and schedules. The route was always intraperitoneal (i.p.). Control mice received normal human IgG (Sigma Aldrich, St. Louis, Mo.).
Starting with the human dose of PRO 140=5.8 mg/kg×12 (man-to-mouse conversion factor)=69.6 mg/kg mouse dose; average mouse=0.025 kg, therefore dose is 69.6 mg/kg×0.025 kg=1.74 mg (mouse single dose). This was rounded up to 2.0 mg and designated as the “high dose”. A “low dose” (0.2 mg) was also tested. IgG derived from human serum (>95% SDS-PAGE, Sigma, I4506) was used as a non-specific control antibody.
Statistical analysis was performed using GraphPad Prism (GraphPad Software, La Jolla, Calif.). All measures of variance were depicted as standard error of the mean (SEM). Survival was analyzed by the Kaplan-Meier method and Mantel-Cox log-rank test. For other data, two-sided unpaired Students t-test was used.

[6] = biological target: T1, CCR5; set-up: host or cells: CHO-K1; details: CHO-K1 cells, cited from earlier work
[7] = biological target: T1, CCR5; details: CD4+ T cells, cited from earlier work
[8] = biological target: T1, CCR5; experiment: Tyrosine kinase phosphorylation downstream of CCR5 receptor signaling in T cells in vitro; format: cell-based; set-up: tyrosine kinase phosphorylation downstream of CCR5 receptor signaling in T cells in vitro; endogenous in cells; host or cells: T cells
Description: Thus, it is shown that PRO 140's activity as a CCL5 competitive binding inhibitor has a mixed impact on CCL5's ability to participate in downstream activity conventionally associated with the CCR5/CCL5 axis. Further elucidation of the role of PRO 140 and its immunomodulatory effects is the subject of continued investigation.

T1 sequence (P51681 whole entry): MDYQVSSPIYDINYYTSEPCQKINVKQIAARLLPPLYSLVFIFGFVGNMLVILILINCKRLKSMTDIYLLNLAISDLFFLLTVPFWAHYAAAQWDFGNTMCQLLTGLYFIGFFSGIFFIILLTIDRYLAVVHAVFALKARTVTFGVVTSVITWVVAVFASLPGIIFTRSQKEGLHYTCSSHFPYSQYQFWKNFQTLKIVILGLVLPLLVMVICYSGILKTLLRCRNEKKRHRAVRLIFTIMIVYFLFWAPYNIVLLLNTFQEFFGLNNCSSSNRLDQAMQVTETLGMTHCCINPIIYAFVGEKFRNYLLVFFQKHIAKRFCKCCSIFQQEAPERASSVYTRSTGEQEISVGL

## Cc1nnc(C(C)C)n1C1C[C@H]2CC[C@@H](C1)N2CC[C@H](NC(=O)C1CCC(F)(F)CC1)c1ccccc1 (stereo in doubt) [maraviroc]
[1]; high doses
  production of TNF-α and IFN-γ: tends to decrease production of TNF-α and IFN-γ
[1]
  CCR5 and CCR2 internalization induced by CCL5 and CCL2: can block CCR5 and CCR2 internalization processes
  T cell chemotactic activities toward cognate ligands: inhibit T cell chemotactic activities
[2]
  incidence of gastrointestinal and liver GVHD: dramatically decreases the incidence of gastrointestinal and liver GVHD

B1: PRO 140: humanized monoclonal antibody to CCR5, humanized version of the murine mAb PA14; competitive inhibitor of CCL5 binding to CCR5 receptor (antibody, chains of the INN, looked up, V domains shown)
VH: EVQLVESGGGLVKPGGSLRLSCAASGYTFSNYWIGWVRQAPGKGLEWIGDIYPGGNYIRNNEKFKDKTTLSADTSKNTAYLQMNSLKTEDTAVYYCGSSFGSNYVFAWFTYWGQGTLVTVSS
VL: DIVMTQSPLSLPVTPGEPASISCRSSQRLLSSYGHTYLHWYLQKPGQSPQLLIYEVSNRFSGVPDRFSGSGSGTDFTLKISRVEAEDVGVYYCSQSTHVPLTFGQGTKVEIK
[3]; bone marrow at the time of euthanasia
  effect on engraftment: did not inhibit engraftment; also recorded: did not negatively affect engraftment
[3]; compared with control IgG mice
  CD45+ cells in bone marrow versus control at the time of euthanasia: no differences
[3]; control 58-59%, p<0.05
  CD45+ cells in spleen at the time of euthanasia: 41%
[3]; p<0.05
  CD45+ cells in peripheral blood at the time of euthanasia: 46%
[3]; p<0.05, listed as Pro 140
  CD45+ cells in peripheral blood at the time of euthanasia: 45%
[3]; high dose cohort, Day 75
  mouse hematopoietic cells (mouse CD45) in bone marrow: 28%
  mouse hematopoietic cells (mouse CD45) in peripheral blood: 14.9%
[3]; high dose cohort, FIG. 6 BM panel E2 quadrant, control 40.2%
  mature T-cells (CD45/CD3) in bone marrow at 54 days: 26.4%
[3]; high dose cohort, FIG. 6 PB panel E2 quadrant, control 63.2%
  mature T-cells (CD45/CD3) in peripheral blood at 54 days: 49.8%
[3]; high dose, compared with control IgG mice
  human CD45+ cells in peripheral blood versus control at day 50: significantly lower
[3]; high dose, control 62%, p=0.034
  human CD45+ cells in peripheral circulation at 50 days: 43%
[3]; low dose (0.2 mg), peripheral blood, P<0.01
  delay until the same percentage of CD45+ engraftment as control: approximately 20 days
[3]; low dose cohort (0.2 mg)
  divergence in engraftment from control, start: 15 days
[4]
  HIV-1 entry and replication: potently inhibits HIV-1 entry and replication
[5]; PRO 140 0.2 mg i.p., BM from donor, control animals all dead by 31 days
  survival (Kaplan-Meier), low dose: ≤ 54 days
[5]; PRO 140 0.2 mg i.p., control mice starting at day 20
  start of physical signs of GvHD and weight loss, low dose: 25 to 28 days
[5]; PRO 140 2.0 mg i.p. twice/wk started day 1, about 20 days after engraftment
  mean weight at about 20 days: about 23.0 gm
[5]; PRO 140 2.0 mg i.p. twice/wk started day 1, about 52 days after engraftment
  mean weight at about 52 days: about 23.6 gm
[5]; PRO 140 2.0 mg i.p. twice/wk started day 1, sacrificed at 70 days, control IgG animals all dead by 56 days
  survival (Kaplan-Meier), high dose: ≥ 70 days
[5]; high dose (2.0 mg i.p. twice/wk), 70-day study period
  physical signs / symptoms of GVHD: did not exhibit any symptoms associated with GVHD; also recorded: no physical signs of GVHD
[5]; high dose (2.0 mg i.p. twice/wk), control mice lost weight
  weight course: gained weight; also recorded: continued to gain weight
[5]; past 70 days, xeno-transplant animal model, NSG mice upon HSC engraftment
  survival: 100%
[6]; PRO 140 alone
  effect on chemotaxis, alone: does not affect chemotaxis
[6]; with CCL5
  effect on CCL5-induced chemotaxis: does reduce CCL5-induced chemotaxis
[7]; PRO 140 alone
  effect on cAMP levels, added alone: does not affect cAMP levels
[7]; with CCL5
  effect on cAMP levels, administered with CCL5: does diminish the effect of CCL5 on cAMP levels
[8]; PRO 140 alone
  effect on tyrosine kinase phosphorylation, alone: does not affect tyrosine kinase phosphorylation
[8]; with CCL5
  effect on phosphorylation of tyrosine kinases by CCL5: does not inhibit phosphorylation of such kinases by CCL5
